The supplement of paper PMC12042874
± gives the uncertainty stated by the source.

Experiment: amyloid nucleation score (Sup35N fusion, yeast selection) (log enrichment); library NNK2; higher = more nucleation; inactive = no reads after selection
In short: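 The nucleation score is the DiMSum log enrichment of output over input reads, centred on the mode score of non-aggregating sequences. Only sequences with 100 or more input reads were scored, using Illumina sequencing of input and output plasmid inserts. Psi-negative yeast expressing Sup35N fused to peptides of 20 random codons were induced 24 hours with 100 μM copper sulfate and grown 7 days at 30°C on medium lacking adenine and uracil.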

| Substance | amyloid nucleation score |
| --- | --- |
| GDCNGSLLKWWR | 0.395 ± 0.55 |
| GDHRFMSVVYVFYQSLNGVV | 3.41 ± 0.049 |
| GDPDQVYSFR | 0.034 ± 1.1 |
| GDQIWNYGSLAETVTASTWS | 0.509 ± 0.21 |
| GDSGFKLI | -0.105 ± 0.39 |
| GDSVLLYKWYMLGCWPIGSC | 4.31 ± 0.056 |
| GDTAWFKVDQLPRLPNTRLQ | 0.998 ± 0.74 |
| GDTIVSSGKVSCQRHASFLI | 0.959 ± 0.74 |
| GDWSYGMGFNMVAMRNWEYL | -0.512 ± 0.63 |
| GEAMSMTEQMTLTRYNYFMY | inactive |
| GEIAPGWEQLWDNEWGSDWA | -0.051 ± 0.39 |
| GFNSNGTFHFSQSVT | -0.001 ± 0.65 |
| GFPLLHTGILVSNLYMLRAR | -0.536 ± 1.1 |
| GFPRKSTDDLNILLNL | -1.47 ± 0.78 |
| GFSLVW | -0.413 ± 0.41 |
| GFSRRGELHVSVYHIRDTFG | 4.88 ± 0.081 |
| GFWFLGCPLYYLVAIFKWII | inactive |
| GGELP | -0.719 ± 0.79 |
| GGGGCSSDFTQKTPPGQAKA | -0.102 ± 0.36 |
| GGMPVFISVTVLYEWNDFLF | 6.671 ± 0.032 |
| GGNIGVSYLRWCARINCWWK | 5.49 ± 0.062 |
| GGQLGGPWPANSLYNVTAVT | -0.075 ± 0.31 |
| GGSMSGFLSCGMI | -1.02 ± 0.22 |
| GGTDMATFNVPKNEVRDRRG | 1.4 ± 0.25 |
| GGWRVSGNTSRSISRPCWRG | 0.483 ± 0.27 |
| GHHLISSDFFDYWGHNMFSG | inactive |

| Substance | amyloid nucleation score |
| --- | --- |
| GHVHQNLMRLVNFSKKSTSL | 4.95 ± 0.055 |
| GHYKFSIVFPVACLIDRFSF | 5.13 ± 0.089 |
| GICLSNTGRMCFG | 0.009 ± 0.39 |
| GIFYSRL | -0.089 ± 0.61 |
| GIHGIIITRV | 3.22 ± 0.14 |
| GIHLVFGFMEWRVMSTLKVS | -0.584 ± 0.64 |
| GIIDLIYCNAEEHSHWGDFA | -1.17 ± 0.62 |
| GIKFCEPCDGGHGDGIWPLT | 0.708 ± 0.29 |
| GIKRMCMVPPVIKSNAYSLN | 2.95 ± 0.062 |
| GIMLLSCFDCGGLSTLGHLA | 7.56 ± 0.082 |
| GIMSNLGQSPRVRSHSRRQQ | 0.747 ± 0.51 |
| GIMSVGTAKWRDGQPSACRK | 0.996 ± 0.37 |
| GISSSHPRTNGHRQYLNFGV | -0.627 ± 0.61 |
| GITCCSMSRRFCFRGEGTEW | 3.81 ± 0.074 |
| GITFPGFI | 0.115 ± 0.28 |
| GIVFIYMNRPSFVVDDLTAG | 7.27 ± 0.078 |
| GIWWQHNGFEYDFGNLSC | -0.165 ± 0.35 |
| GIYYTT | -0.854 ± 0.28 |
| GKCTGRPPMNHSSLL | 0.832 ± 0.39 |
| GKDCSRVNKHWCQRGRQGMV | 0.922 ± 0.58 |
| GKIKTVFWSKDLRFVFIMCV | -0.633 ± 0.48 |
| GKKTAGDIRCWWRWSLGCSP | 0.731 ± 0.57 |
| GKLHIRIWQDSVWLGDLRL | 3.82 ± 0.063 |
| GKLSGTPWTLSGATKRALLY | -0.494 ± 0.64 |
| GKQYPFHFI | -0.583 ± 1.1 |
| GKRVLRWTNWMAR | 1.83 ± 0.29 |

| Substance | amyloid nucleation score |
| --- | --- |
| GLGRKYNMRRRLKLVFWRSD | 4.23 ± 0.084 |
| GLHLHSVAEYVCWGTPLSRL | 0.119 ± 0.76 |
| GLISDYFSPSCIVYAGVR | inactive |
| GLLEAWEDFLGRMHGVGLVC | 4.15 ± 0.051 |
| GLLPVGSVGVRVALVVMRVQ | 1.35 ± 0.36 |
| GLQYQYSGLWVR | 0.236 ± 0.44 |
| GLRRRMCCRRCWLEGVDFQD | inactive |
| GLRSIGLGVQSFRSYQFSRI | -0.415 ± 0.45 |
| GLRTLERSDVSVGVRRYLG | 1.33 ± 0.51 |
| GLSDQKGTVALRFFYFDFYS | 2.73 ± 0.074 |
| GLSELMKGLLTN | 0.08 ± 0.79 |
| GLSMCIWCRSIQMTTLGSRY | 0.365 ± 0.36 |
| GLSNLR | -0.114 ± 1 |
| GLSWPTNRCRRALMESTSAP | inactive |
| GLTASL | -0.375 ± 0.49 |
| GLVRERIDTAHPRSTSYC | 0.561 ± 0.62 |
| GLWDSRMAFSRTS | 3.57 ± 0.078 |
| GLWRLYWILFHF | -1.17 ± 0.78 |
| GLYANFVPAIRTDGRGWRFW | -0.352 ± 0.48 |
| GLYNFLLSGQ | inactive |
| GMIFFHGNSLGVTDDSHK | 0.811 ± 0.82 |
| GMKSIDVL | -1.21 ± 0.36 |
| GMLSTTALNLLNMVICYYSL | 5.447 ± 0.035 |
| GMPNFSVFVWAF | 2.59 ± 0.082 |
| GMSYTLYQSWTVDHTVILPP | 3.99 ± 0.12 |
| GMVFRRWREMYSSFVDRTLR | 0.799 ± 0.51 |

| Substance | amyloid nucleation score |
| --- | --- |
| GNESDVSTIYKGDIPLLGVL | -1.05 ± 0.55 |
| GNFDWAFHYGVFVHLCHKMG | inactive |
| GNGWAMSVTKR | 0.571 ± 0.64 |
| GNIDGLLQFEYRW | 0.552 ± 0.66 |
| GNIGYCKRSFSGLQLVGCAR | -0.464 ± 0.78 |
| GNRDMGVVNGRYVTAVTS | 0.422 ± 0.26 |
| GNRLRIKLL | -0.2 ± 0.27 |
| GNRVWERTNFELSSDRESGV | 0.832 ± 0.27 |
| GNVITDGESMMDCKGTMRSC | 0.584 ± 0.21 |
| GPCSSGSDSTCQMPCLAWPG | 0.74 ± 0.51 |
| GPIYLWFSFKSRCQSSCHDV | -0.866 ± 0.48 |
| GPSDLIFLPGLMAPRS | -0.373 ± 1.1 |
| GQCPIHMCGRNTYMK | 0.05 ± 0.32 |
| GQELSGNIFIPDHLGLLSCS | 0.744 ± 0.8 |
| GQYLLSTIIVFGCSMAGFAA | 2.52 ± 0.12 |
| GRCILGCHPATRTGMLRYFE | -0.087 ± 1 |
| GRCTGLLCLALVVIYQ | 0.358 ± 0.39 |
| GRDFCFEVSHYVVMFAFLRD | 0.114 ± 0.63 |
| GRFVSVKHYS | inactive |
| GRILNFMSHDWGDHMICGKK | 0.65 ± 0.66 |
| GRLGSAPQKR | 0.686 ± 0.32 |
| GRLRDCRDEHNSNPTLRFTS | 0.449 ± 0.16 |
| GRNFYESNCAMFDRYSCFGS | 0.255 ± 1.1 |
| GRPAAHAPSHPTRSVLGMS | 0.763 ± 0.47 |
| GRRDNMVRCKRLCRWRVWTA | 0.157 ± 0.55 |
| GRRVPGWNQSYL | -0.274 ± 0.76 |

| Substance | amyloid nucleation score |
| --- | --- |
| GRRYSRTVEFVTF | 0.692 ± 0.29 |
| GRYHIDSRKGKSNKSRGNIY | inactive |
| GRYLVSKTCFFYLMGNEVN | -0.307 ± 0.56 |
| GRYNLLNKGNSAGVWCGLFS | -0.324 ± 1.1 |
| GSCNASVPVQV | 0.057 ± 0.76 |
| GSESLNV | 0.887 ± 0.57 |
| GSLDWRMELWWKFFLHHQPL | 0.759 ± 0.74 |
| GSLMRFDSWLGGTIASS | 0.402 ± 0.66 |
| GSSKFPDFSISLMYELFDI | -0.91 ± 1.1 |
| GSSTSGVCTGVRERAVDCGV | 0.007 ± 0.76 |
| GSSVIFSALRMYVSLFLYLV | inactive |
| GSVGFVQYAVGNSMTSGIMV | -0.307 ± 0.2 |
| GSVTTCSAWYKRRNLDICHR | -0.277 ± 0.22 |
| GSVVHLQSCNISLIAYGLHG | 8.298 ± 0.054 |
| GSVVHQEFFSPSKGFVSSQF | -1.4 ± 0.55 |
| GTCLHCGEIRS | -0.293 ± 0.29 |
| GTDSL | -0.226 ± 1.1 |
| GTDTTIDLNSYGHYYSLCVR | 0.334 ± 0.65 |
| GTMCFFMCTDYLYGSQTRLG | -0.054 ± 1.1 |
| GTTSCISDLQWMGYIVKL | 0.039 ± 0.46 |
| GTVLMRFGGCLFFVMSRQNC | 1.89 ± 0.42 |
| GVAGFDTSDNETG | 0.543 ± 0.33 |
